From patent US20240050517A1 (University of Washington, published 2024)
Positions of bridges follow the written chain, without caps; N, C: chain ends. Non-standard residues stand in square brackets, D forms with d.

T1: synthetic PSMα1 peptide (phenol soluble modulin α1) (Staphylococcus aureus, N-terminal formylation (fMet 1))
T1 peptide: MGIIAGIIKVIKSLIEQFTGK

B1: AP407 (designed binder)
peptide: Ac-RGE[dM]N[dL]C[dW]MNEYSGW[dC]M[dN]L[dK]MGR-NH2
modifications: disulfide 7-16
SMILES: CSCC[C@H](NC(=O)[C@@H](CCCCN)NC(=O)[C@H](CC(C)C)NC(=O)[C@@H](CC(N)=O)NC(=O)[C@H](CCSC)NC(=O)[C@H]1CSSC[C@H](NC(=O)[C@@H](CC(C)C)NC(=O)[C@H](CC(N)=O)NC(=O)[C@@H](CCSC)NC(=O)[C@H](CCC(=O)O)NC(=O)CNC(=O)[C@H](CCCNC(=N)N)NC(C)=O)C(=O)N[C@H](Cc2c[nH]c3ccccc23)C(=O)N[C@@H](CCSC)C(=O)N[C@@H](CC(N)=O)C(=O)N[C@@H](CCC(=O)O)C(=O)N[C@@H](Cc2ccc(O)cc2)C(=O)N[C@@H](CO)C(=O)NCC(=O)N[C@@H](Cc2c[nH]c3ccccc23)C(=O)N1)C(=O)NCC(=O)N[C@@H](CCCNC(=N)N)C(N)=O
B2: AP90 (Alternating Peptide #90) (designed binder)
peptide: Ac-RGE[dM]N[dL]S[dW]MNEYSGW[dT]M[dN]L[dK]MGR-NH2
SMILES: CSCC[C@H](NC(=O)[C@@H](CCCCN)NC(=O)[C@H](CC(C)C)NC(=O)[C@@H](CC(N)=O)NC(=O)[C@H](CCSC)NC(=O)[C@H](NC(=O)[C@H](Cc1c[nH]c2ccccc12)NC(=O)CNC(=O)[C@H](CO)NC(=O)[C@H](Cc1ccc(O)cc1)NC(=O)[C@H](CCC(=O)O)NC(=O)[C@H](CC(N)=O)NC(=O)[C@H](CCSC)NC(=O)[C@@H](Cc1c[nH]c2ccccc12)NC(=O)[C@H](CO)NC(=O)[C@@H](CC(C)C)NC(=O)[C@H](CC(N)=O)NC(=O)[C@@H](CCSC)NC(=O)[C@H](CCC(=O)O)NC(=O)CNC(=O)[C@H](CCCNC(=N)N)NC(C)=O)[C@H](C)O)C(=O)NCC(=O)N[C@@H](CCCNC(=N)N)C(N)=O
notes: Designed α-sheet single-turn hairpin peptide with alternating L/D residues in the strands; Made by solid phase synthesis; In the BLI assay it was loaded on an aminopropylsilane (APS) sensor tip at 180 µM; also called α1

Legend:
[1] = target: T1, synthetic PSMα1 peptide (phenol soluble …); test: cell-based or functional assay
[2] = target: T1, synthetic PSMα1 peptide (phenol soluble …); test: BLI (BLItz), AP90 (180 µM) immobilized on APS tip, PSMα1 (50 µM) in solution, samples near the end of the aggregation lag phase (α-sheet-rich, about 48 h); lower end of the range; PSMα1 samples near the end of the aggregation lag phase
Experimental: (§1) All biolayer interferometry (BLI) experiments were performed on a BLItz™ biosensor system (ForteBio) using aminopropylsilane (APS) sensors. Sensors were hydrated in ddH₂O+22 μM ThT for 10 minutes prior to use. Designed peptides (dissolved in ddH₂O+22 μM ThT) were loaded onto the APS tip, a baseline was established in ddH₂O+22 μM ThT, and then the association of PSMα1 (prepped with DMSO+ddH₂O+22 μM ThT, as in the fibrillization assay at various pre-incubation times) was monitored over a period of three minutes. Dissociation was subsequently measured in ddH₂O+22 μM ThT, and the equilibrium dissociation constant (KD) was calculated using the BLItz™ analysis software (ForteBio).

[3] = target: T1, synthetic PSMα1 peptide (phenol soluble …); test: BLI (BLItz), AP90 immobilized on APS tip, PSMα1 (50 µM) pre-incubated 146 h (transition region between α-sheet and β-sheet)
Experimental: as §1

Row | Binder | inhibition of PSMα1 amyloid formation (ThT fluorescence), water + <1% DMSO, 30 µM PSMα1, 1:3 molar ratio PSMα1:AP407 [1] [%] | Kd [2] [µM] | drop in binding affinity against α-sheet-rich PSMα1 (end of lag phase) [3] [fold] | inhibition of PSMα1 amyloid formation (ThT fluorescence), water + <1% DMSO, 30 µM PSMα1, 1:4 molar ratio PSMα1:AP90 [1] [%] | inhibition of PSMα1 fibril formation (ThT fluorescence), LB medium + <1% DMSO, 1:4 molar ratio PSMα1:AP90 [1] [%]
1 | B1 | 69 |  |  |  | 
2 | B2 |  | 1 to 1.5 | ~100 | 81 | 73
